# Source: US9631002B2, “Methods and compositions for producing active vitamin K-dependent proteins” (The University of North Carolina at Chapel Hill, priority 2010, dated 2017)
# Residue numbers refer to the chain shown, from its start. Numbers in names are those of the source. Entries after “also recorded” stand apart in the source; their conditions may differ.
# B1: Human VKOR with amino acids 44-50 substituted with amino acids DYKDDDDK (Flag tag): human VKOR cysteine loop 44-50 replaced with FLAG tag, SEQ ID NO:34 (protein)
# chain: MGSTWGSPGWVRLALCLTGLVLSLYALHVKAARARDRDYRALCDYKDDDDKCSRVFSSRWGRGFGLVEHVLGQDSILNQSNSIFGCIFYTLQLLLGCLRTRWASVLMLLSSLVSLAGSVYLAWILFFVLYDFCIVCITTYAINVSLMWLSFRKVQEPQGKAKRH
# modifications: Human VKOR with amino acids 44-50 substituted with amino acids DYKDDDDK (Flag tag)
# B2: AR-VKORH: Arabidopsis VKORH, NP_567988.1, SEQ ID NO:19 (protein, listed as Arabidopsis thaliana)
# chain: MMARFVSVSSCQFHFGFREVSPPSVTSYPRRFEVSDRRFPAIPIKCSSSEPENGEDSAPSLSSSSSSSTSEVSTSNSSTYNWYTGIGGIGMLDTAYLTYLKVTGSDAFCPIGGGTCGDVLNSDYAVVFGVPLPVIGFVMYGVVTALSAELGEGNLPFGISKSNGRFALFGITTAMASASAYFLYILSTKLSGSSCLYCLVSAFLSFSLFFLSVKDVKLQEIQQVVGLQICLAIIVVASLTASYSTAQPIPSRSGDIELPYFRTEISSSSSPYAIALAKHLNSIGAKMYGAFWCSHCLEQKEMFGREAAKELNYVECFPDGYKKGTKILKACADAAIEGFPTWIINDKVLS
# B3: SY-VKORH: Synechococcus sp. VKORH, SEQ ID NO:21 (protein)
# chain: MASYLKLKAQEETWLQRHSRLILAILAGLGSLLTAYLTYTKLTEQPAAFCTGDGGCDLVLSSRWAEFLGIPTAAVGLLGFLGVLALAVLPDGLPLVKRWRWPALFGLVSAMTAFEMYMLYLMVAVLRQFCMYCTTAIILVAGLGLVTVLGHRWLDGGKLAFSYILVAFLTLVTTIGVYANQVPPPSPLAVGLAAHLRQIGGTMYGAYWCPHCQDQKELFGAAFDQVPYVECSPNGPGTPQAQECTEAGITSYPTWIINGRTYTGVRSLEALAVASGYPLEEGR
# modifications: Synechococcus sp. JA-2-3B′a(2-13)
# B4: SA-VKORH: Salinispora tropica CNB-440 VKORH, SEQ ID NO:24 (protein)
# chain: MTTTANRPVTTPAERHFLAAVTAWVLTIGGAVGLLAAAALTVEKINLLADPGYVPTCSINPILSCGSVMNTPQAAVFGFPNPLLGIAGFAVVTTLGVTLLATGHLPRWMWLGLQGGVTFGVVFVHWLIYQSLYVIGALCPYCMVVWAVTIPIFLYTTLQTLRDNTTALPRALRRVTERVARYHSLVLVVWAAFVVVVILHRFWDYWSTLG
# modifications: Salinispora tropica CNB-440
# B5: Takifugu: Takifugu VKOR NP_001027838, SEQ ID NO:7, Y138F (protein)
# chain: MAIPTWERKVRIFLCVFGLLLSVYALHVELSRERNPDYRAMCDLGESVSCSKVFSSRWGRGFGLVQYFVDKDSPLNQPNSVLGIIFYTLQMCLGLSLSRKAALFLVFSSWVSVAGSLYLASILAFVLGDFCMVCVSTFLVNFVLLFTNLKRRRAIEGLKEKSG
# modifications: Takifugu rubripes
# B6: RO-VKORH: Roseiflexus sp. RS-1 VKORH, SEQ ID NO:20 (protein)
# chain: MRRFLLTLIVSCMLTLSLSVASAAATVRAVLFYSPRCGHCHMVISEHLPPLQQRYGDQLQILMIDVDQAQGAALYREAIAVYAIPEARRGVPTMIISDTVLVGSVEIPQRLPGLIETLLARGGSDWPPIPGLADLLATVPTSAPAPPTLPPATAETPPFLRDLPANALAVVVLAGMLLTVMWAGITWSRPAQPPTRWRDRSIPLLAIGGMAVAAYLTFIETTGAPALCGPVGDCNAVQQSEFARLFGTIPVGAAGVAGYGAILIVWIVAHLLPGTSGERAALLLPALALIGTLFSIYLTFLEPFVIGATCLWCLTSAVIMTGLLWLSMPYRQRSTSRGYARR
# modifications: Roseiflexus sp. RS-1
# B7: Amphioxus: Amphioxus VKOR, SEQ ID NO:11, Y144F (protein, listed as Branchiostoma floridae)
# chain: MAAGRSFRLPIWEILSRCMLCTAGLVLSGYAFYVETSKEADHSYTAMCDVSESVSCSKVFTSRFGRGFGLVEPILGADSPLNLPNSIFGLAFYIMQLCLGVVPGMSVSIVLLATSVLSCLGCVYLAYILYFILQDACIVCISTFVVNTFMLIVNIKRVLLQRKAILKKQQ
# B8: Trichoplax: Trichoplax VKOR XM_002107720.1, SEQ ID NO:15 (protein, listed as Trichoplax adhaerens)
# chain: B7 chain with F144Y, F149L, I152V, I165L
# B9: hVKOR Arabidopsis: human VKOR with residues 122-139 replaced by Arabidopsis VKOR 185-202, SEQ ID NO:30 (protein)
# chain: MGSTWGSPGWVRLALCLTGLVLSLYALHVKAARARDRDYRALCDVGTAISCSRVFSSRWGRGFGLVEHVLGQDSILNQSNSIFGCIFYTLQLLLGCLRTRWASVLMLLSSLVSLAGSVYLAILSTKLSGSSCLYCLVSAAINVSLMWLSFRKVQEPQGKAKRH
# modifications: Human VKOR with amino acids 122-139 substituted with amino acids 185-202 of A. thaliana VKOR (RefSeq accession no. NP_567988)
# B10: Xenopus tropicalis: Xenopus VKOR NP_001006928, SEQ ID NO:8, Y138F (protein)
# chain: MAVPGWERAVRLLLCGVGIALSVYAYHVETSRERDANYTALCDINPSISCSKVFTSRWGRGFGLVEQILGRQSFLNQPNSVFGILFYGLQVLLGFSGSVGAAAALLGTSLVSIAGSLYLAYILFYVLEDFCVICVTTFALNFCLLLLNLKRLASLRAPPKKQKNKRKKN
# modifications: Xenopus (Silurana) tropicalis
# B11: VKOR-CM: human VKOR with R37G, R35G, R33G, K30L, G9R, S7R and G6R mutations, SEQ ID NO:35 (protein)
# chain: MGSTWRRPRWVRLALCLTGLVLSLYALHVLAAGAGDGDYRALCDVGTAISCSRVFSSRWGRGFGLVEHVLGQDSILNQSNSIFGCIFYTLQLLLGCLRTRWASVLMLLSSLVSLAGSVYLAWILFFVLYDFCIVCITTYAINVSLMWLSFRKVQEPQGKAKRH
# modifications: Human VKOR comprising an R37G mutation, an R35G mutation, an R33G mutation, a K30L mutation, a G9R mutation, an S7R mutation and a G6R mutation
# B12: V45N: human VKOR comprising a V45N substitution introducing an additional glycosylation site, SEQ ID NO:25 (protein)
# chain: B11 chain with R6G, R7S, R9G, L30K, G33R, G35R, G37R, V45N, C51A
# modifications: Human VKOR with V45N mutation
# B13: hVKOR DsbB: human VKOR with residues 122-139 replaced by bacterial DsbB 33-50, SEQ ID NO:32 (protein)
# chain: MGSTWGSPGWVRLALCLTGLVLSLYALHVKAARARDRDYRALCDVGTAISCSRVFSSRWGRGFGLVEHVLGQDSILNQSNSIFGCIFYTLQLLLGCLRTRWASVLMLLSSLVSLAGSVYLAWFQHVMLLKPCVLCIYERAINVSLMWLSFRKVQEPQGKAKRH
# modifications: Human VKOR with amino acids 122-139 substituted with amino acids 33-50 of DsbB enzyme (RefSeq accession no. ZP_03067529)
# Tests used:
# [1] = test system: FIXgla-PC carboxylation in HEK 293 cells; type: cell-based, human; conditions: 11 μM vitamin K or 5 μM KO, HEK293
# [2] = test system: carboxylation of FIXgla-PC reporter protein in HEK293 cells (reduction of KO to vitamin K); assay: Cell-based VKOR activity assay: recombinant VKOR/VKORH expressed in FIXgla-PC/HEK293 cells with KO and warfarin, carboxylated reporter by ELISA; set-up: species or system human; conditions: for carboxylation activity of modified human VKOR: FIGS. 23, 33; for support of carboxylation of the reporter protein with KO as substrate / ability of human VKOR with replaced residues 122-139 to use KO to carboxylate the reporter: 5 μM KO; for support of carboxylation of the reporter protein with KO as substrate: 4 μM warfarin, 48 h (FIG. 15B); for Relative activity: Human Y139F: VKOR of the organism compared to human Y139F VKOR, cell-based carboxylation; for ability of human VKOR with replaced residues 122-139 to use KO to carboxylate the reporter: 2 μM warfarin, 48 h, HEK293 (FIG. 11C)
# [3] = test system: carboxylation of FIXgla-PC reporter protein in AV12 cells (reduction of vitamin K to KH2); assay: Cell-based VKOR activity assay in FIXgla-PC/AV12 or FIXgla-PC/VKOR-Y139F/AV12 cells, carboxylated reporter by ELISA; set-up: species or system Syrian golden hamster; conditions: for activity in reducing vitamin K to KH2 to support carboxylation: transient expression in FIXgla-PC/VKOR-Y139F/AV12, KO and warfarin (FIG. 19A); for ability of human VKOR with replaced residues 122-139 to use vitamin K to carboxylate the reporter: 11 μM K, 2 μM warfarin, 48 h, FIXgla-PC AV-12 (FIG. 11B)
molecule,measurement,setting,value
"CC(=CCC12OC1(C)C(=O)c1ccccc1C2=O)CCCC(C)CCCC(C)CCCC(C)C (centres unmarked) [KO, Vitamin K1 2,3-epoxide]",increase in secretion of carboxylated reporter protein compared to no additions,[1],approximately 25 fold
B1,carboxylation activity of modified human VKOR,[2],increased activity
B2,support of carboxylation of the reporter protein with KO as substrate,[2],only MT-VKORH supported carboxylation
same,activity in reducing vitamin K to KH2 to support carboxylation,[3],no significant activity
B3,support of carboxylation of the reporter protein with KO as substrate,[2],only MT-VKORH supported carboxylation
same,activity in reducing vitamin K to KH2 to support carboxylation,[3],no significant activity
B4,activity relative to MT-VKORH,"[2]; KO as substrate, FIXgla-PC/HEK293 (FIG. 21B)",30%
same,ability to reduce vitamin K to KH2 compared with MT-VKORH,[3]; FIXgla-PC/VKOR-Y139F/AV12 (FIG. 21C),higher than the KO to vitamin K reduction
B5,Relative activity: Human Y139F,[2],"Yes, greater"
B6,support of carboxylation of the reporter protein with KO as substrate,[2],only MT-VKORH supported carboxylation
same,activity in reducing vitamin K to KH2 to support carboxylation,[3],significant activity
B7,Relative activity: Human Y139F,[2],"Yes, greater"
B8,Relative activity: Human Y139F,[2],No
B9,ability of human VKOR with replaced residues 122-139 to use KO to carboxylate the reporter,[2],only the human VKOR substituted with the M. tuberculosis domain functions as a VKOR
same,ability of human VKOR with replaced residues 122-139 to use vitamin K to carboxylate the reporter,[3],can utilize vitamin K to produce carboxylated reporter protein
B10,Relative activity: Human Y139F,[2],"Yes, greater"
B11,ability to carboxylate vitamin K dependent reporter protein relative to wild type / control VKOR,[2]; charge-mutated human VKOR (FIG. 32),approximately fourfold; also recorded: about four times more active
B12,carboxylation activity of modified human VKOR,[2],increased carboxylation activity
B13,ability of human VKOR with replaced residues 122-139 to use KO to carboxylate the reporter,[2],only the human VKOR substituted with the M. tuberculosis domain functions as a VKOR
same,ability of human VKOR with replaced residues 122-139 to use vitamin K to carboxylate the reporter,[3],can utilize vitamin K to produce carboxylated reporter protein
